The text below walks through data of the supplement of paper PMC10567573.

± gives the standard deviation.

The data set in a line: protein stability index of a GFP-peptide fusion (GPS, HEK-293T) (PSI 1-6); higher = more stable. Conditions: c terminus: a fixed tail appended.
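Further: 24-mer peptide tiles fused after GFP, lentivirally expressed, FACS-sorted into six equal bins by GFP/DsRed ratio, decoded by Illumina sequencing, PSI is the read-weighted mean bin number.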

For PKQLRLINQPLPDLKNVKSKIGST [MAP2], the protein stability index runs as follows: (treatment: DMSO) 3.9 ± 0.1; (treatment: MLN4924 1 uM, 8 h) 3.88 ± 0.19.
PKRCLKAREHFGTVKTHLTSLKTK [TSN]: the protein stability index stood at 3.72 ± 0.32 (treatment: DMSO) and 3.88 ± 0.34 (treatment: MLN4924 1 uM, 8 h).
Turning to PKTSGTRATSLGRPEEEEDELAHR [CPOX], the protein stability index worked out at 5.42 ± 0.36 (treatment: DMSO) and 5.42 ± 0.19 (treatment: MLN4924 1 uM, 8 h).
Consider PLTLQVQRPLVSVTVSDASWVSEL [AUP1], for which the protein stability index stood at 2.67 ± 0.15 (treatment: DMSO) and 2.67 ± 0.25 (treatment: MLN4924 1 uM, 8 h).
With PMALLTIGSSSEKEIDDVIDEIIS [TFE3], the protein stability index runs as follows: (treatment: DMSO) 2.98 ± 0.099; (treatment: MLN4924 1 uM, 8 h) 3.29 ± 0.095.
Taken in the same sequence, the figures for PNIAMTSGTVQPKQDAFANFANFS [CLINT1] were 3.61 ± 0.34 and 3.66 ± 0.14.
As to PNNKEIPSHHPTDPVELRRLNFQT [PTPRD], the protein stability index is 4.15 ± 0.18 (treatment: DMSO) and 4.35 ± 0.081 (treatment: MLN4924 1 uM, 8 h).
With PPALLPLYFQWYIFYFVIQRKKWV [FADS1], the protein stability index runs as follows: (treatment: DMSO) 2.68 ± 0.059; (treatment: MLN4924 1 uM, 8 h) 2.73 ± 1.6.
PPGHHAEQDAACGFCFFNSVAVAA [HDAC6]: the protein stability index is, setting by setting: (treatment: DMSO) 2.88 ± 0.51; (treatment: MLN4924 1 uM, 8 h) 2.96 ± 0.68.
As for PPLPGKALKRQLPFRGDEGIFEES [SNX12], the protein stability index runs as follows: (treatment: DMSO) 4.59 ± 0.21; (treatment: MLN4924 1 uM, 8 h) 4.74 ± 0.22.
With PPLSHIMAQPLCIRALLNLHTDVG [NEK8], the protein stability index (treatment: DMSO) was 2.21 ± 0.41 and the protein stability index (treatment: MLN4924 1 uM, 8 h) was determined as 2.03 ± 0.13.
Taken in the same sequence, the figures for PPPTTAPHKERYFDRVDENNPEYL [ADD1] were 5.06 ± 0.17 and 5.14 ± 0.17.
The sequence PPRSDTIANYELVYKDGEHGEEQR [PTPRD] returned a protein stability index (treatment: DMSO) of 5.48 ± 0.21 and a protein stability index (treatment: MLN4924 1 uM, 8 h) of 5.57 ± 0.14.
For PPSSPRTLRLEKLGHPALSQEEGK [PPFIA4], in that order: 5 ± 0.15 and 5.19 ± 0.31.
For the sequence PQLAGKWQVLCMLSLCCWGWVSGQ [PCDHGC5], the protein stability index came out at 2.88 ± 0.93 (treatment: DMSO) and 2.85 ± 0.43 (treatment: MLN4924 1 uM, 8 h).
Taken in the same sequence, the figures for PRNPTVRWGYVAMKFAQVFGCFFY [SOAT1] were 2.33 ± 0.2 and 2.18 ± 0.2.
Consider PRVEYIDRPRCCLRGKECCINRFQ [BTBD1], for which the protein stability index was 2.42 ± 0.13 (treatment: DMSO) and 2.61 ± 0.28 (treatment: MLN4924 1 uM, 8 h).
Taken in the same sequence, the figures for PSDLDSTGNSLNEPEEPSEIPERR [DLC1] were 5.64 ± 0.21 and 5.62 ± 0.23.
Taken in the same sequence, the figures for PSSLNSPSSYNCSQSILPLEHGSI [ESR2] were 3.15 ± 0.31 and 3.13 ± 0.12.
With PTSPVYRGSSSGPSSPARVSTTPR [MTUS2], the protein stability index came out at 5 ± 0.25 (treatment: DMSO) and 4.95 ± 0.33 (treatment: MLN4924 1 uM, 8 h).
For PTTSHRLSRHDKAVQRFCLIGSLS [NETO1], in that order: 2.28 ± 0.23 and 2.45 ± 0.48.
As to PVDGARYRWQGRRWEPSGKAEPRL [TBX6], the protein stability index (treatment: DMSO) stood at 3.68 ± 0.41 and the protein stability index (treatment: MLN4924 1 uM, 8 h) came out at 3.86 ± 0.76.
Taken in the same sequence, the figures for PVEDSHTADISSHFQEAIDFIDCV [DUSP5] were 4.54 ± 0.21 and 4.44 ± 0.32.
On to PVPEQSALCQGLYFHINQTLREAH [FAM104A], for which the protein stability index (treatment: DMSO) worked out at 2.46 ± 0.21 and the protein stability index (treatment: MLN4924 1 uM, 8 h) was 2.77 ± 0.28.
Taken in the same sequence, the figures for PWGVQGGQESEVPYKREEEALEER [PKD2L1] were 5.16 ± 0.37 and 5.56 ± 0.19.
For PYMSIQPAEDPDDYDDGFSMKHTA [SMARCE1], in that order: 4.88 ± 0.12 and 4.78 ± 0.21.
As for QAIEPQAIVQQVPAPSRMQMPQGN [SNX8], the protein stability index is, setting by setting: (treatment: DMSO) 4.64 ± 0.25; (treatment: MLN4924 1 uM, 8 h) 4.75 ± 0.22.
For QCWKSLFIDTYSDVGRYIDHYAAI [FBXO3], in that order: 2.65 ± 0.48 and 2.8 ± 0.72.
For QDLKLFLQEPGVFSPTPPQQFQPA [FCHSD1], in that order: 3.26 ± 0.34 and 3.55 ± 0.55.
For QDPEGKGEQEHSQQKEEEEEMAVV [CHGA], in that order: 5.43 ± 0.34 and 5.69 ± 0.13.
QEAAQLDMLLEKLPQVAEEISGPL [FLOT1]: the protein stability index stood at 4.81 ± 0.29 (treatment: DMSO) and 4.76 ± 0.18 (treatment: MLN4924 1 uM, 8 h).
For QFYRNLGKSGLRVSCLGLGTWVTF [KCNAB2], in that order: 2.24 ± 0.86 and 2.2 ± 0.32.
Turning to QGAPASSFVYVNPEDGRIFAQRTF [PCDHGC5], the protein stability index reads like this: (treatment: DMSO) 2.57 ± 0.27; (treatment: MLN4924 1 uM, 8 h) 2.78 ± 0.35.
For QGASWELQSLRPHDEDIKTTNVKS [ZNF396], in that order: 5.14 ± 0.097 and 5.19 ± 0.21.
Taken in the same sequence, the figures for QGLIEDCQLALQQKRETLSPLCLI [KCTD13] were 2.47 ± 0.17 and 2.64 ± 0.25.
Taken in the same sequence, the figures for QGSRHWQKLREESAARVVLTSLLA [DUSP5] were 2.31 ± 0.25 and 2.44 ± 0.24.
As for QGTGYIPTEQVNELVALIPHSDQR [TMEM106C], the protein stability index is 4.73 ± 0.18 (treatment: DMSO) and 4.67 ± 0.18 (treatment: MLN4924 1 uM, 8 h).
Taken in the same sequence, the figures for QGVCYLVLCEAAFPKKLAFAYLED [SEC22B] were 3.26 ± 0.27 and 3.05 ± 0.058.
Taken in the same sequence, the figures for QHESGQSSSRGSSHCDSPSPQEDG [BNIP3L] were 5.62 ± 0.36 and 5.5 ± 0.16.
For QHHHHHHHHHGRDFLLRAASFDVC [RHOBTB2], in that order: 2.55 ± 0.14 and 2.58 ± 0.2.
As for QKFDTLYAILDEKKSELLQRITQE [TRIM63], the protein stability index turned out to be 3.11 ± 0.095 (treatment: DMSO) and 3.21 ± 0.29 (treatment: MLN4924 1 uM, 8 h).
As for QKHTEVETVDLVLKLKNKLLQADR [DENND6A], the protein stability index runs as follows: (treatment: DMSO) 3.49 ± 0.33; (treatment: MLN4924 1 uM, 8 h) 3.45 ± 0.32.
Turning to QLAKELGATYLELHSLDDFYIGKY [RHOBTB3], the protein stability index runs as follows: (treatment: DMSO) 2.56 ± 0.56; (treatment: MLN4924 1 uM, 8 h) 2.33 ± 0.27.
For QLATSSFLLFLLTGIVSVAFLLLP [MOSPD3], in that order: 3.5 ± 0.19 and 2.88 ± 0.54.
For QLEQPEKMPVLKAEASHYNSDLNN [RHOBTB3], in that order: 4.83 ± 0.19 and 4.94 ± 0.15.
For QLESLGLLAPGEQSLPCTERKPAA [KISS1], the protein stability index runs as follows: (treatment: DMSO) 4.69 ± 0.18; (treatment: MLN4924 1 uM, 8 h) 4.73 ± 0.15.
Turning to QLIEEGYVGEPLVCEVQVHGGSLL [GFOD1], the protein stability index came out at 2.44 ± 0.15 (treatment: DMSO) and 2.46 ± 0.39 (treatment: MLN4924 1 uM, 8 h).
For QLKVVERTRTATMLCAASGNPDPE [PTPRD], in that order: 5.16 ± 0.26 and 4.86 ± 0.38.
For QLLKGRVDNISTLDSEIKKNSDGM [CD207], in that order: 4.24 ± 0.16 and 4.23 ± 0.2.
For QLPISSENDSTPTVSTSEVTSQQE [TAF7L], the protein stability index is 5.53 ± 0.28 (treatment: DMSO) and 5.5 ± 0.13 (treatment: MLN4924 1 uM, 8 h).
As for QNLVYYRFHRARWGLEEEDFQPRE [P3H4], the protein stability index is, setting by setting: (treatment: DMSO) 2.38 ± 0.17; (treatment: MLN4924 1 uM, 8 h) 2.25 ± 0.27.
In the case of QNYISQKEDASEFQILKYLFQIDV [MIA2], the protein stability index came to 2.28 ± 0.21 (treatment: DMSO) and 2.25 ± 0.45 (treatment: MLN4924 1 uM, 8 h).
As to QPFYHDDSYTATGYGRAPGGLSLH [JUNB], the protein stability index reads like this: (treatment: DMSO) 3.18 ± 0.39; (treatment: MLN4924 1 uM, 8 h) 3.36 ± 0.24.
